The values that follow come from article PMC3032881.

Read-outs that look alike come from different tables or passages of the source.

In test [1] the target is HLA A*0201 on the surface of TAP deficient T2 cells (human (endogenous in T2 cells)). Put plainly: flow cytometry on cells; T2-binding assay: TAP deficient T2 cells with peptide at 100, 50, 10 and 1 μM in AIM-V, 10 min 37 °C, room temperature overnight, 2 h 37 °C; surface HLA A*0201 stained with anti-human HLA A*0201:RPE; MFI fitted (log(agonist) vs. response) to logEC50.
For test [2], the target named is soluble recombinant HLA A*0201 (α chain tagged with a biotinylation sequence, with β2m). Put plainly: SPR; real time pMHC stability assay, BIAcore 3000, CM5 chip; ~500 RU of biotinylated refolded pMHCI immobilised on streptavidin; flow 10 μl/min for 15,000 s; Langmuir dissociation analysis converted to half-life.
For test [3], the target named is HLA A*0201 on the surface of TAP deficient T2 cells (human (endogenous in T2 cells)). The test can be described thus: flow cytometry on cells; T2-binding assay: TAP deficient T2 cells with peptide at 100, 50, 10 and 1 μM in AIM-V, 10 min 37 °C, room temperature overnight, 2 h 37 °C; surface HLA A*0201 stained with anti-human HLA A*0201:RPE; MFI fitted (log(agonist) vs. response) to logEC50. The source holds these as a separate data set.

Test [4] deals with soluble recombinant HLA A*0201 (α chain tagged with a biotinylation sequence, with β2m). Put plainly: SPR; real time pMHC stability assay, BIAcore 3000, CM5 chip; ~500 RU of biotinylated refolded pMHCI immobilised on streptavidin; flow 10 μl/min for 15,000 s; Langmuir dissociation analysis converted to half-life. The source holds these as a separate data set.

On to SLLMWITQL [NY-ESO-1 157-165 heteroclitic peptide …], for which the LogEC50 in test [1] is -4.37 M. In test [2], the half-life amounted to 10.1 h and the koff turned out to be 1.9e-05 s⁻¹.
As for YLEPGPVTA (modifications not checked) [gp100 280-288 peptide YLEPGPVA], in test [3], the LogEC50 was -3.59 M. The half-life in test [4] was found to be 5.8 h.
